Assay results as given in PMC9482650, “Quantitative fragmentomics allow affinity mapping of interactomes” (Nature Communications, 2022).
One block for each binder: values may come before it.

How the values were obtained:
Test in all cases: holdup assay
Parameters in all cases: key: below the threshold = too weak to quantify, mostly under pKd 3.1 to 4
Settings in all cases: plain residues with an end cap or a label only (N-terminal biotin on a linker: ado-ado)
[1] = target: FRMPD2_1, Q68DX3
[2] = target: T1, LNX2_3, Q8N448
T1 sequence (Q8N448 463-564, limits assumed, looked up): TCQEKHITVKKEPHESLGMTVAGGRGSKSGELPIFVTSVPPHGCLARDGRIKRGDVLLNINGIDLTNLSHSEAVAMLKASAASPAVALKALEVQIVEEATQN

[3] = target: GORASP2, Q9H8Y8
[4] = target: T2, TX1BP3, O14907
T2 sequence (O14907 10-122, limits assumed, looked up): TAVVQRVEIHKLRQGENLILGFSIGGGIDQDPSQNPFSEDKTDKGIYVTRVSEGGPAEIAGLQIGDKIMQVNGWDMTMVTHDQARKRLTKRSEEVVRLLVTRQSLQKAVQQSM

[5] = target: NHERF2_2, Q15599
[6] = target: T3, ARHGAP21, Q5T5U3
T3 sequence (Q5T5U3 45-169, limits assumed, looked up): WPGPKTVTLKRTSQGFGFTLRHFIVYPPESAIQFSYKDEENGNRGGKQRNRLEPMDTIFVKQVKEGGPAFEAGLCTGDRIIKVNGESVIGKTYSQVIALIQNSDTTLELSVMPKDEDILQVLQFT

[7] = target: Inadl_1, Q8NI35
[8] = target: Inadl_5, Q8NI35
[9] = target: T4, MPDZ_5, O75970
T4 sequence (O75970 695-796, limits assumed, looked up): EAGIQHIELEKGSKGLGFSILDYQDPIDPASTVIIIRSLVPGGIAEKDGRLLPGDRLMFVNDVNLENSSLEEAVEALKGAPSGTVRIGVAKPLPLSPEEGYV

[10] = target: GRID2IP_2, A4D2P6
[11] = target: DLG2_3, Q15700
[12] = target: SCRIB_2, Q14160
[13] = target: GIPC2, Q8TF65
[14] = target: LAP2, Q96RT1
[15] = target: T5, LIN7C, Q9NUP9
T5 sequence (Q9NUP9 88-185, limits assumed, looked up): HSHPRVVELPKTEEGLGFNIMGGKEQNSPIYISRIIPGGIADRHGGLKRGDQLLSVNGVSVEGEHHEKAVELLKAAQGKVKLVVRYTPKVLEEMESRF

[16] = target: GOPC, Q9HD26
[17] = target: T6, SNTA1, Q13424
T6 sequence (Q13424 82-180, limits assumed, looked up): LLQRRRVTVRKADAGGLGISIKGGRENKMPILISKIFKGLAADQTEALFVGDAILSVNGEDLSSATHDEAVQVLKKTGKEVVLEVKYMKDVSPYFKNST

[18] = target: TJP1_2, Q07157
[19] = target: T7, DFNB31_1, Q9P202
T7 sequence (Q9P202 135-233, limits assumed, looked up): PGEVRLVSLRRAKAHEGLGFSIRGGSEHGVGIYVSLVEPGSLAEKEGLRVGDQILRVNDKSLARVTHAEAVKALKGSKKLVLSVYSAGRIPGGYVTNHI

[20] = target: T8, PARD3B_1, Q8TEW8
T8 sequence (Q8TEW8 196-299, limits assumed, looked up): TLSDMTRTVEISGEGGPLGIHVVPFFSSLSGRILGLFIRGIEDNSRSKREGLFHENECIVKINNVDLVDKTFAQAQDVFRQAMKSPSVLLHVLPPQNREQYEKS

[21] = target: T9, GRIP1_7, Q9Y3R0
T9 sequence (Q9Y3R0 999-1096, limits assumed, looked up): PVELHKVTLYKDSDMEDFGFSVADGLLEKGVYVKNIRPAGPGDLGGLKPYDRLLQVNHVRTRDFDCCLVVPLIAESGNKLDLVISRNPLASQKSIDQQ

[22] = target: T10, HTRA3, P83110
T10 sequence (P83110 354-453, limits assumed, looked up): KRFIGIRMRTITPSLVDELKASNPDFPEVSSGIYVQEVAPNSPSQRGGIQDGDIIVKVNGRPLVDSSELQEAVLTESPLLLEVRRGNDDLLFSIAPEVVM

[23] = target: T11, PDZD2_2, O15018
T11 sequence (O15018 329-429, limits assumed, looked up): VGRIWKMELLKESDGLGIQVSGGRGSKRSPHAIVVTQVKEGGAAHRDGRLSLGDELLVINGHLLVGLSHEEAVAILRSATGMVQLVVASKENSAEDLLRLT

[24] = target: FRMPD3, Q5JV73
[25] = target: Inadl_3, Q8NI35
Chain of Inadl_3, Q8NI35 (Q8NI35 359-469): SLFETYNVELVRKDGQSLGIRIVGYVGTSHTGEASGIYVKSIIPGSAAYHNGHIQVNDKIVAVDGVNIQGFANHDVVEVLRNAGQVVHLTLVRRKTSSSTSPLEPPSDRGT

Chain of Inadl_5, Q8NI35 (Q8NI35 673-780): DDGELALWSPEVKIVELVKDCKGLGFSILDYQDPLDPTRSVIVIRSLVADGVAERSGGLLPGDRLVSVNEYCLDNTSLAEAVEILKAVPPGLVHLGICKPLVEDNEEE
Chain of FRMPD3, Q5JV73 (Q5JV73 12-100): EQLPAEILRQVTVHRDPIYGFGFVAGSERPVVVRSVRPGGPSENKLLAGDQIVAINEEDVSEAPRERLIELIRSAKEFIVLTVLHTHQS
Chain of GRID2IP_2, A4D2P6 (A4D2P6 272-370): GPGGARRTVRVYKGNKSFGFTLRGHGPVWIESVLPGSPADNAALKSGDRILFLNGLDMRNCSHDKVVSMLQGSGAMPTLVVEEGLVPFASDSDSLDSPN
Chain of SCRIB_2, Q14160 (Q14160 857-960): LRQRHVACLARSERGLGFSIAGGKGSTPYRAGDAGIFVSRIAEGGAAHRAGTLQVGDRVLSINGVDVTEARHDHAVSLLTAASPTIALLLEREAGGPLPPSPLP
Chain of LAP2, Q96RT1 (Q96RT1 other isoform, or with tags, fused parts or gaps): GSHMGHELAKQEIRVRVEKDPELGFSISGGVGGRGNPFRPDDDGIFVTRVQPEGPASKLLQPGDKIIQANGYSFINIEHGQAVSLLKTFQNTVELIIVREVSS
Chain of GIPC2, Q8TF65 (Q8TF65 112-203): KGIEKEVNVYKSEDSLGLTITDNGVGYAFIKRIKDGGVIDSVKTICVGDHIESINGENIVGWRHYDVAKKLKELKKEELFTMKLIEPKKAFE
Chain of Inadl_1, Q8NI35 (Q8NI35 113-229): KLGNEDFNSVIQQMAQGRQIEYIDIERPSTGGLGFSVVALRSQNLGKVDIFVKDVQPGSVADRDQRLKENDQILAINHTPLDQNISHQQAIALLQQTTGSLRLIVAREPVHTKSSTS
Chain of NHERF2_2, Q15599 (Q15599 142-238): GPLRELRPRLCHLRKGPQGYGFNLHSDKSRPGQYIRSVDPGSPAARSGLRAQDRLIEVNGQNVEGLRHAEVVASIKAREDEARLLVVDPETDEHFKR
Chain of FRMPD2_1, Q68DX3 (Q68DX3 770-861): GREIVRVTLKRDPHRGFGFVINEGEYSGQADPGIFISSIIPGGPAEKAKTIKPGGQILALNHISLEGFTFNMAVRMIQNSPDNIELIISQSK
Chain of TJP1_2, Q07157 (Q07157 181-274): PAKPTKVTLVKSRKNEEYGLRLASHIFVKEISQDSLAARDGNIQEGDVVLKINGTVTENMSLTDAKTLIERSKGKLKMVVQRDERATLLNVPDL

B1: RSRC2, Q7L4I2 (peptide)
chain: TSSMRGMDAV
pKd [1]: below the threshold
pKd [2]: below the threshold
pKd [3]: below the threshold
pKd [4]: below the threshold
pKd [5]: below the threshold
pKd [6]: below the threshold
pKd [7]: below the threshold
pKd [8]: below the threshold
pKd [9]: below the threshold
pKd [10]: below the threshold
pKd [11]: below the threshold
pKd [12]: below the threshold
pKd [13]: below the threshold
pKd [14]: below the threshold
pKd [15]: 3.97
pKd [16]: below the threshold
pKd [17]: below the threshold
pKd [18]: below the threshold
pKd [19]: below the threshold
pKd [20]: below the threshold
pKd [21]: below the threshold
pKd [22]: below the threshold
pKd [23]: below the threshold
pKd [24]: below the threshold
pKd [25]: below the threshold

B2: GRIN2A, Q12879 (peptide)
chain: KKMPSIESDV
pKd [1]: below the threshold
pKd [2]: below the threshold
pKd [3]: below the threshold
pKd [4]: 5.13
pKd [5]: below the threshold
pKd [6]: below the threshold
pKd [7]: below the threshold
pKd [8]: below the threshold
pKd [9]: below the threshold
pKd [10]: 3.59
pKd [11]: 3.74
pKd [12]: 4.43
pKd [13]: 3.84
pKd [14]: 4.6
pKd [15]: below the threshold
pKd [16]: below the threshold
pKd [17]: 4.59
pKd [18]: below the threshold
pKd [19]: below the threshold
pKd [20]: below the threshold
pKd [21]: below the threshold
pKd [22]: below the threshold
pKd [23]: 4.91
pKd [24]: below the threshold
pKd [25]: below the threshold

B4: GPRC6A, Q5T6X5 (peptide)
chain: TLPRKRMSSI
pKd [1]: below the threshold
pKd [2]: below the threshold
pKd [3]: below the threshold
pKd [4]: below the threshold
pKd [5]: below the threshold
pKd [6]: below the threshold
pKd [7]: below the threshold
pKd [8]: below the threshold
pKd [9]: below the threshold
pKd [10]: 3.87
pKd [11]: 3.84
pKd [12]: below the threshold
pKd [13]: below the threshold
pKd [14]: 3.86
pKd [15]: below the threshold
pKd [16]: below the threshold
pKd [17]: below the threshold
pKd [18]: below the threshold
pKd [19]: 3.59
pKd [20]: below the threshold
pKd [21]: below the threshold
pKd [22]: below the threshold
pKd [23]: 4.22
pKd [24]: below the threshold
pKd [25]: below the threshold

B6: TGFA, P01135 (peptide)
chain: TACCHSETVV
pKd [1]: below the threshold
pKd [2]: below the threshold
pKd [3]: 4.05
pKd [4]: 3.82
pKd [5]: below the threshold
pKd [6]: 4.08
pKd [7]: below the threshold
pKd [8]: 3.7
pKd [9]: below the threshold
pKd [10]: below the threshold
pKd [11]: 4.05
pKd [12]: 4.1
pKd [13]: below the threshold
pKd [14]: 4.05
pKd [15]: below the threshold
pKd [16]: 3.82
pKd [17]: 5.04
pKd [18]: below the threshold
pKd [19]: 4.02
pKd [20]: below the threshold
pKd [21]: below the threshold
pKd [22]: below the threshold
pKd [23]: 4.32
pKd [24]: below the threshold
pKd [25]: 4.81

Now from value to binder:

pKd [1]: below the threshold
pKd [2]: below the threshold
pKd [3]: 3.85
pKd [4]: 4.24
pKd [5]: below the threshold
pKd [6]: 3.95
pKd [7]: below the threshold
pKd [8]: 3.48
pKd [9]: below the threshold
pKd [10]: 3.63
pKd [11]: below the threshold
pKd [12]: below the threshold
pKd [13]: below the threshold
pKd [14]: below the threshold
pKd [15]: below the threshold
pKd [16]: below the threshold
pKd [17]: below the threshold
pKd [18]: below the threshold
pKd [19]: below the threshold
pKd [20]: below the threshold
pKd [21]: below the threshold
pKd [22]: 4.55
pKd [23]: 4.79
pKd [24]: below the threshold
pKd [25]: below the threshold
B3: CLDN14, O95500 (peptide)
chain: HSGYRLNDYV

pKd [1]: below the threshold
pKd [2]: below the threshold
pKd [3]: 5.16
pKd [4]: below the threshold
pKd [5]: below the threshold
pKd [6]: below the threshold
pKd [7]: 3.82
pKd [8]: below the threshold
pKd [9]: below the threshold
pKd [10]: below the threshold
pKd [11]: below the threshold
pKd [12]: below the threshold
pKd [13]: below the threshold
pKd [14]: below the threshold
pKd [15]: below the threshold
pKd [16]: below the threshold
pKd [17]: below the threshold
pKd [18]: below the threshold
pKd [19]: below the threshold
pKd [20]: 3.66
pKd [21]: below the threshold
pKd [22]: below the threshold
pKd [23]: below the threshold
pKd [24]: below the threshold
pKd [25]: below the threshold
B5: EFNB1, P52799 (peptide)
chain: QSPANIYYKV
